Results on three molecules are retold here after PMC8863895, “A synthetic protein as efficient multitarget regulator against complement over-activation” (Communications Biology, 2022).

What all share (conditions): both partners purified
The target of one assay is T1, C3b (human).
T1 construct: complement C3, C3b β-chain; complement C3, C3b α′-chain (C3 α-chain after release of C3a); also called complement C3b; source: bought: CompTech
As to the kind of experiment: ELISA; decay acceleration assay: 250 ng C3b immobilised on Maxisorp; C3bBb formed with 400 ng Factor B and 25 ng Factor D, 2 h 37 °C; increasing concentrations of regulator, 40 min 37 °C; Bb remaining bound to C3b detected with anti-factor B polyclonal antibody. A general note: An ELISA detects its analyte on a solid surface through an enzyme-linked reagent.

A further assay has as its target T2, complement C3b (UniProt P01024 749-1663; P01024 749-1663).
T2 construct: C3b beta-chain, cut product of complement C3; C3b alpha'-chain, cut product of complement C3 (alpha chain without C3a); source: bought: CompTech
Briefly: ELISA; 5 µg/mL C3b or C5 immobilised on Maxisorp plates at 4 °C overnight; increasing concentrations of regulator (0.195-50 nM) in sample buffer (2% BSA in TBS, 0.05% Tween-20); detected with anti-His-tag antibodies; absorbance normalised to the highest concentration; IC50 from a 4PL nonlinear regression.

For the next assay, the target named is T3, complement C5.
T3 construct: complement C5 beta chain; complement C5 alpha chain; source: bought: CompTech
The description is as above.

A further assay concerns the target T4, C7 (human, UniProt P10643 23-843).
T4 construct: complement component C7; Supplier is stated for the ELISA; also called complement component C7; source: bought: CompTech
As to the kind of experiment: ELISA; C5b6, C6, C7, C8, C9, C3b or C5 (5 µg/mL) immobilised on Maxisorp plates; single concentration of regulator (25 nM MFHR13 or MFHR1 variants, 50 nM FHR1); detected with anti-His-tag antibodies.

The target in the next assay is T5, C8 (human, UniProt P07357 31-584; P07358 55-591; P07360 21-202).
T5 construct: also called complement component C8; source: bought: CompTech; copies: + +
The description is as above.

For a further assay, the target named is T6, C9 (human, UniProt P02748 22-559).
T6 construct: complement component C9; Supplier is stated for the ELISA; also called complement component C9; source: bought: CompTech
The description is as above.

Another assay has as its target T7, C6 (human, UniProt P13671 22-934).
T7 construct: complement component C6; also called complement component C6; source: bought: CompTech
The assay is described as above.

Usually IC50 stands for the concentration at which inhibition is half-maximal. A lower IC50 goes with higher potency.

T6 sequence (P02748 22-559): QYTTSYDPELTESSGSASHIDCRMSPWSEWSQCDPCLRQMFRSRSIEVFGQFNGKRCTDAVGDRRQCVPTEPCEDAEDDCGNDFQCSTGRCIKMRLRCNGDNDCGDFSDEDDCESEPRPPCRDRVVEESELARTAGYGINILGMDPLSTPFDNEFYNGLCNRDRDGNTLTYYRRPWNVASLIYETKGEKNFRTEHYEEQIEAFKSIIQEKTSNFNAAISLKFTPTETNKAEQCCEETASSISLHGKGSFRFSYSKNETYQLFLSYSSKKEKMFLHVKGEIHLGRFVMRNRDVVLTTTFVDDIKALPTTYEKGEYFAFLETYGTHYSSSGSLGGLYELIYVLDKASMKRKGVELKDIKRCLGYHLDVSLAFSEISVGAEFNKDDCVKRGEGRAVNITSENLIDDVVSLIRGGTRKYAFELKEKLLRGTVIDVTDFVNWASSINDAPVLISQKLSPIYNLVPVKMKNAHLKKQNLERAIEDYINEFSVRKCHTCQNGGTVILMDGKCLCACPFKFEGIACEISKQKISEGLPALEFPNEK
T4 sequence (P10643 23-843): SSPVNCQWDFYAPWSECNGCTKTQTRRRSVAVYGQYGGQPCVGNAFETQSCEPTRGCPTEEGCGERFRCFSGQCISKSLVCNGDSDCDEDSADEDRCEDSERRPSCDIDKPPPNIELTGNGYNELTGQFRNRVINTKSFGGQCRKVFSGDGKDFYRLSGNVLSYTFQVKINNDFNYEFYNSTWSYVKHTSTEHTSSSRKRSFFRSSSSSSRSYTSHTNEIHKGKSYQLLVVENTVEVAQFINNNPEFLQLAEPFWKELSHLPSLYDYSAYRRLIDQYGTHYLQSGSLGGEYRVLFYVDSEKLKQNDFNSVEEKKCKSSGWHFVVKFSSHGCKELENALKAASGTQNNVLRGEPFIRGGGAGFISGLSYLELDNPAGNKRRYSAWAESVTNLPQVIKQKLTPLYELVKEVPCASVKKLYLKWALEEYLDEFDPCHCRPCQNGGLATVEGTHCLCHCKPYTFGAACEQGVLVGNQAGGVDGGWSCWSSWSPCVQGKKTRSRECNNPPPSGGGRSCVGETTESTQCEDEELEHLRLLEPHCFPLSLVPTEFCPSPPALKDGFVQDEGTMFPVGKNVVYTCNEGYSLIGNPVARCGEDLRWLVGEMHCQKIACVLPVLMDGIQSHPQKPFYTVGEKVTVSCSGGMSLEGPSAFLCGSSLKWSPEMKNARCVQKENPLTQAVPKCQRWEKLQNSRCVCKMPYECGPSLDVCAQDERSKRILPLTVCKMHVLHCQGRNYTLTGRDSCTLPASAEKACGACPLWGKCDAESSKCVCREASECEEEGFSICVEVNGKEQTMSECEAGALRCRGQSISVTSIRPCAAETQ
T5 sequence (P07357 31-584, chain 1 of 3): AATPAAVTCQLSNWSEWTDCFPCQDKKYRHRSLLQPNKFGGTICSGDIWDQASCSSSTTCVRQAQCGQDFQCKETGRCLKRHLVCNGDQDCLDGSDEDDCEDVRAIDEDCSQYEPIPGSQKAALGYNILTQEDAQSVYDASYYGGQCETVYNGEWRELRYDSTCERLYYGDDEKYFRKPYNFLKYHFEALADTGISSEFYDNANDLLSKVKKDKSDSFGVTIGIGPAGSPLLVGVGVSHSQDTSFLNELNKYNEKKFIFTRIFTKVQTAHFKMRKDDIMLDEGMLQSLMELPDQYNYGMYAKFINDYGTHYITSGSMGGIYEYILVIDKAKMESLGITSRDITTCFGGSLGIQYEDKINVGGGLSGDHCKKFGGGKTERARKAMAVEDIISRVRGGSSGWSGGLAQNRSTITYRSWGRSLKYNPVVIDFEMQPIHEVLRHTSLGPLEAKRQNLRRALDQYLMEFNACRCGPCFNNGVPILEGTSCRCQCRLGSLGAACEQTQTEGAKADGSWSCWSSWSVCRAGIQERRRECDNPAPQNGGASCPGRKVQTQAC
T5 sequence (P07358 55-591, chain 2 of 3): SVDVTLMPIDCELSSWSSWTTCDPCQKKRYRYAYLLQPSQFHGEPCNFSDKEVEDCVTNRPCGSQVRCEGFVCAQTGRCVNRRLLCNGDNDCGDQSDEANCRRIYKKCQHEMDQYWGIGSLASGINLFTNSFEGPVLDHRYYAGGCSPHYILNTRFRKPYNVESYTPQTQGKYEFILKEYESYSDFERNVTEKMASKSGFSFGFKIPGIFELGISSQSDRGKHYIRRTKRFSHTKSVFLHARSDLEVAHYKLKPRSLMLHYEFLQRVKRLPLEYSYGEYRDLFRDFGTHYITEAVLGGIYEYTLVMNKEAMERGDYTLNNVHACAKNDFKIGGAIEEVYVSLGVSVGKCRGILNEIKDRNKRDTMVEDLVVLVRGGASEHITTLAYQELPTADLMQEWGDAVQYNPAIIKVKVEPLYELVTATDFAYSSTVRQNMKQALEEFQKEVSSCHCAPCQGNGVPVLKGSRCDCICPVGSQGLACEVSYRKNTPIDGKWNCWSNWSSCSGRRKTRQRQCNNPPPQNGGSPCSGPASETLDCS
T5 sequence (P07360 21-202, chain 3 of 3): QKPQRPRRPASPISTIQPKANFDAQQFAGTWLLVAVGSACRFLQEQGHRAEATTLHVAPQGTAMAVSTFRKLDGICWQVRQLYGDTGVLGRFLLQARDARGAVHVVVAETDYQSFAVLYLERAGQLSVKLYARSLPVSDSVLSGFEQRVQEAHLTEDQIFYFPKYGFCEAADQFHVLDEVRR
T7 sequence (P13671 22-934): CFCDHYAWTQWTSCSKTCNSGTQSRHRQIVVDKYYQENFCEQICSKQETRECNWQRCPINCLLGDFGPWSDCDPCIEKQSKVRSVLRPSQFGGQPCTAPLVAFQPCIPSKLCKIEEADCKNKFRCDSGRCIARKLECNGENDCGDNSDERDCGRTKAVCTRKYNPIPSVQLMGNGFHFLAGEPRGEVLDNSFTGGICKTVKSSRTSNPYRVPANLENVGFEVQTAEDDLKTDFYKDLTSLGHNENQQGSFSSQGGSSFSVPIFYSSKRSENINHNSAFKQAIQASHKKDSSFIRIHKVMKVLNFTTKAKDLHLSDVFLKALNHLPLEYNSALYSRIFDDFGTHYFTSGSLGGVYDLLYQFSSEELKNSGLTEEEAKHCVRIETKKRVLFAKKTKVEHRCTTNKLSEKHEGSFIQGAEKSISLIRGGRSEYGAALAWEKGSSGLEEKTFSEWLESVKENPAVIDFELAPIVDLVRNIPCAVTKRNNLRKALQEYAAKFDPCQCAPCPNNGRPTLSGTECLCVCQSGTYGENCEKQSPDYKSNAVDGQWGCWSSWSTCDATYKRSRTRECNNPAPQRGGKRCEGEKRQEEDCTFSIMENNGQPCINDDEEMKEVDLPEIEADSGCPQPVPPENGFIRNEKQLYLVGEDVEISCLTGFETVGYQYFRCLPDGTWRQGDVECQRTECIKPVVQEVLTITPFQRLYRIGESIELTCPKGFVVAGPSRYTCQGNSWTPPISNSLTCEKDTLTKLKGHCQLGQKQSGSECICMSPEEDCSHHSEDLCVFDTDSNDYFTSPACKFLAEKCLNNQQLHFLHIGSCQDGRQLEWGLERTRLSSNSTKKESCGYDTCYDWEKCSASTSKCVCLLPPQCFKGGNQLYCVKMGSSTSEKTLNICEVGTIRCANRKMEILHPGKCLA

B1: MFHR13 (FHR1_(1-2):FH1-4:FH13:FH_(19-20)) (other)
chain: EATFCDFPKINHGILYDEEKYKPFSQVPTGEVFYYSCEYNFVSPSKSFWTRITCTEEGWSPTPKCLRLCFFPFVENGHSESSGQTHLEGDTVQIICNTGYRLQNNENNISCVERGWSTPPKCRSTEDCNELPPRRNTEILTGSWSDQTYPEGTQAIYKCRPGYRSLGNIIMVCRKGEWVALNPLRKCQKRPCGHPGDTPFGTFTLTGGNVFEYGVKAVYTCNEGYQLLGEINYRECDTDGWTNDIPICEVVKCLPVTAPENGKIVSSAMEPDREYHFGQAVRFVCNSGYKIEGDEEMHCSDDGFWSKEKPKCVEISCKSPDVINGSPISQKIIYKENERFQYKCNMGYEYSERGDAVCTESGWRPLPSCVAIDKLKKCKSSNLIILEEHLKNKKEFDHNSNIRYRCRGKEGWIHTVCINGRWDPEVNCSMAQIQLCGPPPPIDNGDITSFPLSVYAPASSVEYQCQNLYQLEGNKRITCRNGQWSEPPKCLHPCVISREIMENYNIALRWTAKQKLYSRTGESVEFVCKRGYRLSSRSHTLRTTCWDGKLEYPTCAKR
modifications: N-glycan at the NIS site in FHR1 SCR2 (around 65% occupied); N-glycan at the NCS site in FH13 (fully glycosylated); glycosylation site in FH4 deamidated and not glycosylated; labelled with NT-647 RED-NHS for MST
B1 returned an IC50 in the assay with C3b of 2.7 nM.

B2: MFHR13 (FHR1_(1-2):FH1-4:FH13:FH_(19-20)) (other)
chain: EATFCDFPKINHGILYDEEKYKPFSQVPTGEVFYYSCEYNFVSPSKSFWTRITCTEEGWSPTPKCLRLCFFPFVENGHSESSGQTHLEGDTVQIICNTGYRLQNNENNISCVERGWSTPPKCRSEDCNELPPRRNTEILTGSWSDQTYPEGTQAIYKCRPGYRSLGNIIMVCRKGEWVALNPLRKCQKRPCGHPGDTPFGTFTLTGGNVFEYGVKAVYTCNEGYQLLGEINYRECDTDGWTNDIPICEVVKCLPVTAPENGKIVSSAMEPDREYHFGQAVRFVCNSGYKIEGDEEMHCSDDGFWSKEKPKCVEISCKSPDVINGSPISQKIIYKENERFQYKCNMGYEYSERGDAVCTESGWRPLPSCVAIDKLKKCKSSNLIILEEHLKNKKEFDHNSNIRYRCRGKEGWIHTVCINGRWDPEVNCSMAQIQLCGPPPPIDNGDITSFPLSVYAPASSVEYQCQNLYQLEGNKRITCRNGQWSEPPKCLHPCVISREIMENYNIALRWTAKQKLYSRTGESVEFVCKRGYRLSSRSHTLRTTCWDGKLEYPTCAKR
Turning to B2, the results for the IC50 with complement C3b and with complement C5 were 16.1 nM and 52.5 nM, respectively.

B3: Recombinant FHR1 (human FH-related protein 1) with a C-terminal 6x His-tag (natural protein, UniProt Q03591 19-330, looked up)
chain: EATFCDFPKINHGILYDEEKYKPFSQVPTGEVFYYSCEYNFVSPSKSFWTRITCTEEGWSPTPKCLRLCFFPFVENGHSESSGQTHLEGDTVQIICNTGYRLQNNENNISCVERGWSTPPKCRSTDTSCVNPPTVQNAHILSRQMSKYPSGERVRYECRSPYEMFGDEEVMCLNGNWTEPPQCKDSTGKCGPPPPIDNGDITSFPLSVYAPASSVEYQCQNLYQLEGNKRITCRNGQWSEPPKCLHPCVISREIMENYNIALRWTAKQKLYLRTGESAEFVCKRGYRLSSRSHTLRTTCWDGKLEYPTCAKR
notes: complement factor H-related protein 1 (FHR1), human; source: bought: Abcam 152006; not shown: His6, C-terminal, kept
Turning to B3, the binding result in the assay with C7, with C8, with C9 and with C6 was “binds” each time.
